T1: S100A9(C3S) subunit of CP-Ser (human, UniProt P06702 1-114, C3S)
T1 construct: S100A9 (calgranulin B, MRP-14), human, 114 amino acids; also called β subunit
T1 sequence (looked up): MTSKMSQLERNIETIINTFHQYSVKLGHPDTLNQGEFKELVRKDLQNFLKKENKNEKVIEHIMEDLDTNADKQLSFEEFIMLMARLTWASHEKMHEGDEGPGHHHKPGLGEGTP


Molecular target: T1, S100A9(C3S) subunit of CP-Ser
Test: co-purification; subunits overexpressed and purified as described previously (ref. 19); the protocol affords the S100A8/S100A9 heterodimer; subunits judged by gel electrophoresis and mass spectrometry

binding result | Binder
binds | S100A8(C42S)(I60E) subunit (natural protein, human, UniProt P05109 1-93, looked up, S100A8, human, 93 amino acids; also called S100A8 subunit of I60E) MLTELEKALNSIIDVYHKYSLIKGNFHAVYRDDLKKLLETESPQYIRKKGADVWFKELDENTDGAVNFQEFLILVIKMGVAAHKKSHEESHKE
binds | S100A8(C42S)(I60K) subunit (natural protein, human, UniProt P05109 1-93, looked up, S100A8, human, 93 amino acids; also called S100A8 subunit of I60K) MLTELEKALNSIIDVYHKYSLIKGNFHAVYRDDLKKLLETESPQYIRKKGADVWFKELDKNTDGAVNFQEFLILVIKMGVAAHKKSHEESHKE

From paper PMC4763987, “Calcium-induced tetramerization and zinc chelation shield human calprotectin from degradation by host and bacterial extracellular proteases† †Electronic supplementary information (ESI) available: Supplementary Tables S1–S6, supplementary Fig. S1–S22. Data for protease activity controls are included …” (Chemical Science, 2015)
